Results reported in US20260250718.

How the values were obtained:
Assay in all cases: cell_activity
[1] = test system: T1, Cyin14 (metagenome (uncultured organism))
T1 sequence: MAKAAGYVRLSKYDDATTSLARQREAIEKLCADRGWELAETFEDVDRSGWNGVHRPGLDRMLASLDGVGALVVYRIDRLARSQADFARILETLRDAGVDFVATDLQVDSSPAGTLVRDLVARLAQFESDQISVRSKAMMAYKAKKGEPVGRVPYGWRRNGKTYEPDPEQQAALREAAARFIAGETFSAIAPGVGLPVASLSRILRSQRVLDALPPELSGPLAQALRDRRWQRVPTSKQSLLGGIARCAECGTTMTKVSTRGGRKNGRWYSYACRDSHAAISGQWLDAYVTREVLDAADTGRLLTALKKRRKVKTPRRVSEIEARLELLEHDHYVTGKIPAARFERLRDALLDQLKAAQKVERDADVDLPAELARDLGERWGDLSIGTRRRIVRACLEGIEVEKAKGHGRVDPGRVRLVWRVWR

[2] = test system: T2, phiC31 integrase (Streptomyces phage phiC31?); settings: positive control; EGFP+ 293T cells at day 20
T2 sequence: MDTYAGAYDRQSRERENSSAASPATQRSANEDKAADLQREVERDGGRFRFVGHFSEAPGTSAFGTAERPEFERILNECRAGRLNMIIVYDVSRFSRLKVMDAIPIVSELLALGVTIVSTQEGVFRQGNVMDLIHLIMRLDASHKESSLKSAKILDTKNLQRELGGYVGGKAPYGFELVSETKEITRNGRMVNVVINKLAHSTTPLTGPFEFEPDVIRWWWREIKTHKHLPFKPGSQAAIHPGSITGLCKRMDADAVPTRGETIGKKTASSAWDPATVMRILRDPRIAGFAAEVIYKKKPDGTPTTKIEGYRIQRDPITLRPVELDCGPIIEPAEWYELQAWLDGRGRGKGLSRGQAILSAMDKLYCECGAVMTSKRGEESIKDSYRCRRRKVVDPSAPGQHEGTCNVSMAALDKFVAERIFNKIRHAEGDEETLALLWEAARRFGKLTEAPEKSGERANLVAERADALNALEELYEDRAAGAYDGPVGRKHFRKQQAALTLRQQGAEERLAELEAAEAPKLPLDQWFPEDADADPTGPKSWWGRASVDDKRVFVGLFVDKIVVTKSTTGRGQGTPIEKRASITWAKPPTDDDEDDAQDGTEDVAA

[3] = test system: T3, Cyin11 (metagenome (uncultured organism)); settings: EGFP+ 293T cells at day 20
T3 sequence: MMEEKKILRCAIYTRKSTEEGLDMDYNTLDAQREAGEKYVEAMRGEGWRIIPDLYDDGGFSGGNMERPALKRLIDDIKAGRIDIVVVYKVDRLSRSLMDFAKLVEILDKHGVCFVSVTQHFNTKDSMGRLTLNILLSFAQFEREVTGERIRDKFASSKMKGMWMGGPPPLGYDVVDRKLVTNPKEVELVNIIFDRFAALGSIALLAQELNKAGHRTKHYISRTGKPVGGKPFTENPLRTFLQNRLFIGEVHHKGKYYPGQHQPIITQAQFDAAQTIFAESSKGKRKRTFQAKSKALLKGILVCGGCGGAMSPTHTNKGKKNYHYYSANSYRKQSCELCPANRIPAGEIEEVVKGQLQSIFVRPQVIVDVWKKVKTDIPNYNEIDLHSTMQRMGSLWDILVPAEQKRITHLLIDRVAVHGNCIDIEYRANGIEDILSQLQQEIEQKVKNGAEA

[4] = test system: T4, Cyin15 (metagenome (uncultured organism)); settings: EGFP+ 293T cells at day 20
T4 sequence: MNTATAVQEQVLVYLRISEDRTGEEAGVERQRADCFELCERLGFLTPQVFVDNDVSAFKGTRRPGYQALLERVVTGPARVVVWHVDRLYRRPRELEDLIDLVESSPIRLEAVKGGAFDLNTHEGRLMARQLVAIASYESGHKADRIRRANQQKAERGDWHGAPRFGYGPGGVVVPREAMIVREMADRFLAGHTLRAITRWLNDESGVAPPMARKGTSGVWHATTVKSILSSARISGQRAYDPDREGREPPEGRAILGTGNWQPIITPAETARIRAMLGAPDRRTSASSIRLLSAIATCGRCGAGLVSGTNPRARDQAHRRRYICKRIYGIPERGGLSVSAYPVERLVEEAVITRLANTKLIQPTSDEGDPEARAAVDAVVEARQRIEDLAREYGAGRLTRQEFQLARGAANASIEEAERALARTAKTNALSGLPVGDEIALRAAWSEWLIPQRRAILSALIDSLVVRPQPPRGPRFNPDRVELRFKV

[5] = test system: T5, Cyin16 (metagenome (uncultured organism)); settings: EGFP+ 293T cells at day 20
T5 sequence: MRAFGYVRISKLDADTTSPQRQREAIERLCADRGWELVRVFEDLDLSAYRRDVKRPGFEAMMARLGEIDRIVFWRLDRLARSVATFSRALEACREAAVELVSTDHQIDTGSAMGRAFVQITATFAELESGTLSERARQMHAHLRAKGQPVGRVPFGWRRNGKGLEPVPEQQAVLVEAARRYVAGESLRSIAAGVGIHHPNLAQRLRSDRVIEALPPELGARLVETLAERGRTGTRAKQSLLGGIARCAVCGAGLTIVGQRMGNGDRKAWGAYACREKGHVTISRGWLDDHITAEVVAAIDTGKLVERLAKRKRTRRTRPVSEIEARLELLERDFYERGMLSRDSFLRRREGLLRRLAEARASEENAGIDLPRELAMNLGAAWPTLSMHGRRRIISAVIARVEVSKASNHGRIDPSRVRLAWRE

[6] = test system: T6, Cyin12 (metagenome (uncultured organism)); settings: EGFP+ 293T cells at day 20
T6 sequence: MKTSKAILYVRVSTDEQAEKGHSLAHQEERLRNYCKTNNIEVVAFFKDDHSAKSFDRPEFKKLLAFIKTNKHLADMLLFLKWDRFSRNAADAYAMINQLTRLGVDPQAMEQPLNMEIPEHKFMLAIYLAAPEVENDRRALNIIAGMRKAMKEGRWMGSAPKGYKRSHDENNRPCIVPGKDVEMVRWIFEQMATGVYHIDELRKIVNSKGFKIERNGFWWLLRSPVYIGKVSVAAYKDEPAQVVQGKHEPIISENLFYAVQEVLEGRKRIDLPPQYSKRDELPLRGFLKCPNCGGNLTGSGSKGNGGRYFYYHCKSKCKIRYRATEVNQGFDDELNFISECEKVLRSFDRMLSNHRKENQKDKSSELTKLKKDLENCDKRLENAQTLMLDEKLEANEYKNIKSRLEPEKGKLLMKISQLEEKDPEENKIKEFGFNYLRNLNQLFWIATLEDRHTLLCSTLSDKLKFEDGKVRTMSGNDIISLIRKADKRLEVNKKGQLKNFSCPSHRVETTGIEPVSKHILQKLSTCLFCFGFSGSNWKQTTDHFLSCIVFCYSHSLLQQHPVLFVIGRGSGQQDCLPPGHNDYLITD

Sequence: ACGTATACTGGCGTACACTGATCAAGGAGGGGCCATGGCCAAGGCAGCCGGGTACGTCAGGCTCAGCAAGTACGACGACGCCACCACTAGTCTCGCCCGCCAGCGTGAGGCCATCGAAAAGCTGTGCCCGGCTCTGGGATCGCCTCACCGAGATCGAGCCGCACGCGTTCGAACCGGTGGAGACGAGGTGAAGCCGAACAGGGTCGCGCTCTATCTCCAAGACAAGCACCCCCTCCGCGAGGGGATGAAGTA (double strand) [14-B1]
- activity ([1]; EGFP+ 293T cells at day 20): 1.38%

Sequence: GTCGACGATGTAGGTCACGGTCTCGAAGCCGCGGTGCGGGTGCCAGGGCGTGCCCTTGGGCTCCCCGGGCGCGTACTCCACCTCACCCATCTGGTCCATCATGATGAACGGGTCGAGGTGGCGGTAGTTGATCCCGGCGAACGCGCGGCGCACCGGGAAGCCCTCGCCCTCGAAACCGCTGGGCGCGGTGGTCACGGTGAGCACGGGACGTGCGACGGCGTCGGCGGGTGCGGATACGCGGGGCAGCGTCAGCGGGTTCTCGACGGTCACGGCGGGCATGTCGAC (double strand) [phiC31 attB]
- activity [2]: 8.87%

Sequence: ATCCAATGTGCAAGGCCATTTAGATGTCGCTTTGGCAAACACACTCGGCCGTTTGTGTCATGAATTATAATATCAGACATGCTACTGAAAAAGATTTATCTGCACTTTGCGATATTGAACATGAATCTTTATTTCCCAAACCAAAAAATGCGTTACCGTTCCAGCGCGTGCCGGTAATTGCAAATGCGACACCAGATAGGCTTTTATATTTCAGCCCCTGATATTCATAGCCGTCAGCCAGCACATACACAT (double strand) [11-B1]
- activity [3]: 1.78%

Sequence: GGAATCAGCCGGGGCTTCTCGGCCGTCAACATCCGCAAGTTCGTGGTGCGAGCATCGCGCCTGTCGGAGCTGGTCGATCTGCAGAGCCTCACGCCGTCCGCGGCCCTGTTCCTCGAGGCATCCATCCGGGACGACGGCCCCGGAGAGCGATCCCGCTGTGAGCAGGCCGCCCTCGGCAATGTCGAGCGCCGCATGCTGGCCGACCACCTGTTCGATCTCGCTTGCGAGCACCGGCTTCACCGCTGGGTCCGCGCT (double strand) [15-B2]
- activity [4]: 1.12%

Sequence: AGCGCCACTTCGTGTGGGGCGTGTTGGAGGATCTCCAAAGCCTCTTCGGCTGAGCCCGCCTCCGTGACGTCGGCGCCCTCCACGCAGTTCTGCAGGACCTGGATGAGGCCCTTTCGAACCAGCGTGTGTACGTGGAGCGGAAGGGGCCGATTATTGACTGAACCGTAGACCAGCCCTATGCTGCTATGGCCGACCAGAGGAGGGGGAGCCATGCGCGCCTTCGGCTACGTCCGGATCTCCAAGCTCGACGCCG (double strand) [16-P2]
- activity [5]: 2.33%

Sequence: GGGTATTCGGCCTCTCTCCCCGTCACGTCCGCGACGTCTTCGTCGCCGGGGAGCTGGTGGTGGAAGACCGGCGGCCAACGCGGGTCCAGCCGGAGGACATCGTCTGGGACGCCGCCGCGGAGGCCGCGCCGACCGCGGCTGGGAGCTCGCCGAGACCTTCGAGGACGTGGACCGCTCCGGGTGGAACGGGGTTCACCGGCCCGGGCTCGACCGGATGCTGGCCTCACTCGACGGCGTTGGCGCGCTGGTCGT (double strand) [14-P1]
- activity ([1]; EGFP+ 293T cells at day 20, donor plasmid integration into genome, significantly above no-integrase control): 10.1%

Sequence: TGCCGGCCAGTGCCGTCTCGGAGGTGGTGAACCAGGTTTCGGATGAAGTCGTCGGCCTCGGTCCCATCGAGCGATTGCTCAAGGACCCGGAGATCAGCGAGGTGATGGTGAACGGGGCCGACGACGTGGTCGTCGACCAGGAGGACCTTCACGAGGCCGCCTCTCGCAACGGGAACCGGGCCACGACCCGCGTGCCCTTCCCCGGCCGCGGATAGACGTAGAGCCTGCCCCCAGCCTCCCGCACGCGGCGGCG (double strand) [16-B2]
- activity ([5]; significantly above no-integrase control): 4.23%

Sequence: TTGTCTTCCTCTGCAGTCAATTGTTTTGGATCATCTTTTTTGGGAACAACAAGATTACTTTGAACATTATCTCTATTTACACCGGTTGAAACCTGGTCCTTCTTATTAAGAACTTCTGTATTTGTCAAAGCAATTCTTTATGTCAGAGTGAGTACAGACGAACAGGCTGAAAAAGGTCACAGTCTGGCTCATCAGGAAGAACGACTTCGTAATTATTGCAAAACAAATAATATCGAGGTCGTTGCTTTTTTTA (double strand) [12-P1]
- activity [6]: 1.53%

Sequence: TCGATTCGGTTCGCCGCGCCGCTACCGGATCGCGCCGAAGAGATGACTGATCTCGAGGCTCCGGCCCGAAGGCCTCCTCAACGGCTTCGAGGATCGATTCGGCGCGCACGGGTGCCTCTCTCCGCGCGCCAGCGCGAGGCAATCGAGCGCCTCTGTGCTGACCGCGGGTGGGAGCTCGTTCGAGTCTTCGAGGATCTCGACCTCTCGGCCTACCGCCGCGACGTGAAGCGGCCGGGCTTCGAGGCCATGATGG (double strand) [16-P1]
- activity [5]: 1.69%
